23 sequences from a protein production outcome set (Wang et al. 2014) can be followed below.

This series in a line: label from the status in PepcDB records.
For “MARDALTDALTVGELRRRVHALVLGKRQRVYSGAMFLVEVVHHPELSAMLGLEDNKLLLAMIAQRLQMQSDYFQVARHSSDSFMVWAPDLDPRSARDVAPEVLDALSQPYELRGQPLIVGFRLSGALYAQHGACFDELERSLHIAMLHLDESAGAAWNMFEPSMLEHQRHYQGLEHHHHHH”, the protein production entry is listed as “failed”.

“MARESRTNPRAAGRNALGARRFWFVSLAGIVLASGYDILQALQGSAAAAQRLVVPVLLLLWLYRGSDWARWILMVMLLGFGVLNMYLGTGMLRYGVQNWLHIYVFSAFMVATGLYLALAGKDFARYRSHVAARRARRAASQG”: the protein production result is “failed”.

In the case of “MARFDRYLLSQLVALFGFFSLVLVLVYWINRAVGLFDDLISDGQSALVFLEFSLLALPNVIRLVLPLSAFAATIYVVNRLSQESELVVMQATGFSAFRLARPVIWFGLIVALMMIVLMNLLVPASRATLSARSAEISQNATARFLRDGEFLHPADGVTLYIREVTETGELRDLLLVDDRDPARSTAYTARRALLVRTDTTPKLLMIDGSAQTLTREGRRLELTRFDDVTYDLGAFMTGSGPKRRVLEELPTMTLLAPTAEVLEETRSTRAAALYEGHSRIGQPFLGFASSLIGFAALLLGSFSRFGLWWQILFAVLLLIVVQTINVAASGVGVTDEQLWPLAYAAPVTGFAIGILLLWIGQRPRRLRRALNGIFAS”, the protein production result was “failed”.

For the sequence “MARHRDRAAGMNMAMMRLRREDPRVVGSFRLHRRLGAGGMGVVYLGSDKKGQRVALKVIRPDLAEDQEFRSRFAREVSAARRIRGGCTARLVAADLEADRPWFATQYVPGPSLHDKVADGGPLGAADVAAVGAALSEGLVAVHEAGVVHRDLKPSNILLSPKGPRIIDFGIAWATGASTLTHVGTAVGSPGFLAPEQVRGAAVTPATDVFSLGATLAYASMGDSPFGHGSSEVMLYRVVHEEAQLHGVPDALAPLVRACLAKDPEERPSTLQLSLRLKEIAAREAQGMADVRPPAPRSGEADVPTGRLADTYPERAQRRPQGRPGPQGTPAPRGTSASRGSAPRGSVPSRGGAPSRGGTPSRGGTPSRGGTSSRGGGTGARSGSRPTPTRDTTGRNSSRNDGGRPAPRGGSGRTAPRTTGTGWRRPANPRLLRQRLFVFVVVTLLVALGIAAAQGCQGPARGLGDERGGGVRATQRDQVDPPGGLPEPRTPGR”, the protein production entry was “failed”.

Consider “MARKCEITGKKTMFGNNVPRKGLAKKKGGAGQHIGVKTKRTFKVNLINKKFFIPNLGRSVSIKVSANALRSISKIGLDAFLKKNCKKIENFLLEHHHHHH”, for which the protein production entry is given as “failed”.

As for “MARKVILFIAMSIDNYIADDQGAVDWLEKNVHGTESDDSYEKMYSKIDTVIMGRTTYEQVTQKLSPEKYVYADRQTYIVTSHLGEDTDKIKYWKQSPVELVKRIQKEKGKDVWIVGGAKLIDPLVQANLIDTYILTTVPIFLGSGIRLFDRLEEQVPVRLIDVYQKNELVYSIYQRG”, the protein production entry is recorded as “not failed”.

Regarding “MARLGKKSRNGAFWAKALERAHLGVWDWDLRSGDCFYSATWARMLGYEEDELANTSDLWLQLTHPDDRERALASGDRHIAGLTDAIETELRLKHKLGHWVWVLDRGGIVESGADGRPLRLMGVQTDISKQKAAEAALEQVTMRFRLALAASGTGIWHYDIATHKSYWDARTREMFGVVADADEVAADLWHSFLHPDDKEATERAHWPSPGSNGVTASQYRIVKRDGEIRHIESLVRYVAAAGAAGQILGTVRDITEDKLREQELAFAARHDALTGLWNRAAFDRLLADHIAKGVPLAVFYVDLDYFKALNDFAGHAAGDLALKSVAAGIGRCLPPSAHAARLGGDEFALLVPHCDAAQAERLAAAILAAVRSADLGLAATARRLAASIGIAIVNDRATTVADALACADDACYAAKAAGRDRFAVFSAEAATGGLNAARLAADTVDAMEDGRLKLFGQEIHRLGRPWQENRHVEVLARLVGRGGKLIPPSEFIPAAERFGIAARLDRWIIRTALSRHGAAMKSGAITLGFNLSAQTLSDPGLWDFVDSIIEETGAPHSGIGFEITETAAVTNFDAAETFVRKARERRCKVSLDDFGAGMSSFEYLRRFPVDAIKIDGSFIEHMAESRFDREIVSAISGIARSVGCTVVAEKIEQAETLGILQTMGVDFGQGFLLHRPEPLEQIVARAAGPARAAPARKAS”, the protein production entry is on record as “failed”.

For “MARPKSKTKKILFAVEIIVLLLFIGGLYVYGQLNSKLDKINQPVLDDSKIKVNQEVQDSIDSQESTLTGYTTYALFGIDHRDKNTALGGENSDTIIIASVNNDTKDVKLVSVYRDTLLNLGNDTYSKANAAYAYGEAEQAITMLNTNLDLNISEYATVNFNALTTIIDDLGGLDMDMSYAEIVHMNNYCVETSEETGKDYTPIELPDRPDDIEAVQYHYHLNGVQATSYCRIRYTASLDMGRTERQRRVIQMIVSKAKSAGLGKIFKIMDDVFPMVTTSMTKDEILQLLPTLIGYSVDDTTGFPTSYKFSNVKGSIIVPTTLETNVIELHKFLYGDEAYTPSATVKANSEKILEIVGGESSLDDKQATVEENTTNDTVIFEKNGSGWSDTSSDYGSDSDSSGGGDYSGDETDNSGGSSSGGGDYSNDGSDNSGGDSSGGEDYEGPTTPEPDYGGDDNGGGDTGGDESGGGDTGGDESGGGDIVDEGSGDDSGAAAEATGTPDAA”, the protein production entry is reported as “failed”.

In the case of “MARPRKPTNVLELTGAFKKDPQRRREDAEPVGELTAPPAHINGAVLHAWKEIAKYAPRDVLTNSDRLSLELAANLLAQFRNDPLDFPAAKLVRLEAMLGKFGMTPADRSKVGGGKKDAPKGNAFAEL”, the protein production entry is recorded as “failed”.

As for “MARRDISGAVDFAYLEGFAAGDFAVVDEVLALFREQAALWAPMLDPTHPGWKDAVHTVKGAARGVGAFNLGEVCERCEAGQESLEGVRTALDAALLDIAAYAHEQALRSLKG”, the protein production result is reported as “not failed”.

In the case of “MARRWTPQRFVMLRRVRVVICVTTVTLASVLAFGVGARKTVALTVNGETTTVTTYAMSVDRLLQEQQVKVKTHDLVESTSSGTLQNHSVVTVRSAYQTTVTIDGQEVPFWTVATSADQLLGFFEANEAEASKITVNIDNVYNKLTGGLVINQNGPVTVIADGKSSVSPNGKLPAASILDSKGIILNKEDRVSVEKDNGETILRVQRVTHDEQTRTKTVPHGTQTIIDASLQPGEAVVRQEGEDGEIQQTYDVTYVDGVEESEKLINEVTTKIAIDQIIAVGPEKTESSDADNADNGQADSGSNDSDSSKSDKKDESDKKDSDSTDKKNDSSEKNDSTSTPTTEPTQTPTPTPTPTQQQQQTQTTTNPSDGCRLYHPSAAQAQTYAAGAAAQYGWTGQHWTNLVKLWNRESSWLWYSENASSGAYGIPQSLPGSKMASFGANWRDDAAVQIDWGLNYIAQRYGNPTKAREHSEQYGWY”, the protein production result is “failed”.

Regarding “MARSIDYGNLMHRAMRGLIQSVLEDVAEHGLPGAHHFFITFDTTHPDVAMADWLRARYPQEMTVVIQHWYENLSADDHGFSVTLNFGNQPEPLVIPFDAVRTFVDPSVEFGLRFETHEEDEEEETGGDEDPDGDDEPPRHDAQVVSLDKFRKLEHHHHHH”, the protein production result is listed as “failed”.

On to “MARSSSFLDNLLTSPSTERYRVGLSVLFLLCVWLVVGSFSQGLPNAMLLMAAAVIGGYMAINIGANDVANNVGPAVGSGALSLGAAVLLAAVFEAAGALIAGGDVVSTIKGGIIDPTSLEDPRAFVWLMTAALLAGALWLNLATWMGAPVSTTHSIVGGVLGAGIAAGGWAIADWAVMGKIAASWVISPVLGGALAALFLFAIKKTVLYRQNLVSSARTFVPWLVAIMAWAFATYLMIKGVKKIVKVDMVEASVIGLIVAGVVFFVMRTLVGRKASTMENSAQGVNTLFTWPLIFAAALLSFAHGANDVANAIGPLAAINDAIQAGGGVVTSAKIPLWVMLVGALGLAVGLMLFGPRLIKTVGSEITELDKTRAFCIALSAALTVILASQLGLPVSSTHIAIGGVFGVGFLREYLKSNYATQLHKIIEQHDPTDQERLKPFLDDFRNASVEEMEKLLKQAKKKKQQVPLSKSERKRLKKIYREEMVKRSHLVKIAAAWIITVPASAIMAAFLFFTLRGLMV”, for which the protein production result is listed as “failed”.

As for “MASDAPTGHVSDLDWLMSGLVQRVPHTTSAVLLSCDGLVKSVHGLDPDSADHMAALASGLYSLGRSAGIRFGDGGDVRQVVVELDSTLLFVSTAGSGTCLAVLAGREADAAVLGYEMAMLVKSVRPYLMTAPRQAAAQPPAMRP”, the protein production result is “failed”.

Regarding “MASEHHEALNLYAVRVARGEGVKQDFARAASLFRRADRCGFNCEPVYDDMVNDFRDKAFGMELVSSKRAFLKALRPETAEARCTVGEAFIGQGDADSLRTGRELLTSAATLGSGKAMYLLGVLCRDGKGVAANAERAFMWFSLAASCGFAKAESERVNAEGKLDDAGRTRAMQLAARWRRQYLAPVCLEHHHHHH”, the protein production entry is on record as “failed”.

In the case of “MASEREQISRKVALIALIANLILMAGKVFFGLVGDSEAVFADGIHSAADVVASIAVLAVIGISNKPPDQDHPFGHGKAEVISEAIVGIILVIVSVYILIEAILSFVKGPSVPQYSALFAALISYVAKEILYRYSIKQGKKWNSKAIIAIAYDHKGDIVASLAAFIGVLLAIIGNSRGWSYLLYADAIASAIVAYLIFKISMELIRPSVGVLMEKSVDPELIEEYKAVIFQCDQVKRIDRIRAREHGHYKLLDVRLSLDHDLTIKQGHDIAREIRNEIKRQFSDVEEVLIHVNPYFEE”, the protein production result is “failed”.

In the case of “MASFQQYKTKTGYKWLFKMGVGIDPKTGNRKTTTRRGFKTKKEAVAAAAEFQKEIDNNALARNDITFEDVFKEWWDVHSKTIKRSTRYRKLSNFKKHILPHFGKLKIKDITRAYCQKVINLIAQDIDSVQNVKIQANLVFKYALRMEYITKNPMEFVVIPKKEENFLSQEEEKRNFWEKDEIKTFLEKAHSQLAPQDYVMFYVLIFTGMRKGELIALEWKDVDLKEKTINIKQTMFFENGKEVIQTTKKYHSKRIITIDDQTAQILKKWRTQQKEMLLSNGITSEAKYVLIRGDMRPLRLAYPNDLLNRMITKNKLHRITIHGFRHSHASILFEAGASIKEVQARLGHKEIQTTMNIYTHVTKTAKAKTAETFKKYMEL”, the protein production result was “failed”.

With “MASFVESGWQYLVTHFSDFQLACIGSFLLHESVFFLSGLPFIFLERQGFLSKYKIQTKNNTPAAQGKCITRLLLYHFSVNLPLMLASYPVFRAMGMRSSFPLPSWKEVSAQILFYFIIEDFVFYWGHRILHSKWLYKNVHSVHHEYATPFGLTSEYAHPAEILFLGFATIVGPALTGPHLITLWLWMVLRVLETVEAHCGYHFPWSLSNFLPLYGGADFHDYHHRLLYTKSGNYSSTFVYMDWIFGTDKGYRRLKTLKENGDMKQT”, the protein production entry is “failed”.

For “MASGSPPSQPSPASGSGYVPGSVSAAFVTCPNEKVAKEIARAVVEKRLAACVNLIPQITSIYEWKGKIEEDSEVLMMIKTQSSLVPALTEFVRSVHPYEVAEVIALPVEQGNPPYLHWVHQVTESV”, the protein production result is recorded as “not failed”.

As for “MASIVMLLRALMSCRLTPKDEPETSDSSSSAAKLYRNIVGDENVTRKRISVVDTSHLGDNHEFIIETTCGSNDMDEGFYWIIVRNHLM”, the protein production entry is reported as “failed”.

“MASKEAHVSLARGEQSVKRIKEFDPGKDSFSVLLLGIDAREKNGETVDQARSDANVLVTFNRKEKTAKMLSIPRDAYVNIPGHGYDKFTHAHAYGGVDLTVKTVEEMLDIPVDYVVESNFTAFEDVVNELNGVKVTVKSDKVIQQIKKDTKGKVVLQKGTHTLDGEEALAYVRTRKADSDLLRGQRQMEVLSAIIDKSKSLSSIPAYDDIVDTMGQNLKMNLSLKDAIGLFPFITSLKSVESIQLTGYDYEPAGVYYFKLNQQKLQEVKKELQNDLGVLEHHHHHH”: the protein production result is listed as “not failed”.

Consider “MASKKPDKTYEEMVKEVERLKLENKTLKQKVKSSGAVSSDDSILTAAKRESIIVSSSRALGAVAMRKIEAKVRSRAAKAVTEQELTSLLQSLTLRVDVSMEELEHHHHHH”, for which the protein production entry is “not failed”.

For the sequence “MASLAFIQAFLESFKGFLSQATLISVLIASVLILFCAILLLLALLLRNRLASYIATAAFLGAFLSMPFVLNILLTQAIYPIETRILHANPLSYSNAFSLQVGVKNHSKFTLNKCVLRLEVLKNPHNFVEEHAFKWFVKKSYEKIFKEKILPKESKVFSFFIDNYPYSKTAPYQVSLFCL”, the protein production result is recorded as “failed”.
